In patent US20250090644A1:

How the values were obtained:
Experiment in all cases: cell-based or functional assay
[1] = target: E. coli expressed recombinant human microplasmin, wild type (human) (UniProt P00747)
[2] = target: E. coli expressed recombinant human microplasmin Met585Ala (human) (UniProt P00747)
[3] = target: E. coli expressed recombinant human microplasmin K642A (Table 3) (human) (UniProt P00747)
[4] = target: E. coli expressed recombinant human microplasmin Glu641Ala (human) (UniProt P00747)
[5] = target: E. coli expressed recombinant human microplasmin Phe587Ala (human) (UniProt P00747)
[6] = target: E. coli expressed recombinant human microplasmin Ser608Ala (human) (UniProt P00747)
[7] = target: E. coli expressed recombinant human microplasmin Gly739Ala (human) (UniProt P00747)
[8] = target: E. coli expressed recombinant human microplasmin Lys607Ala (human) (UniProt P00747)
[9] = target: E. coli expressed recombinant human microplasmin Pro642Ala (human) (UniProt P00747)
[10] = target: E. coli expressed recombinant human microplasmin Arg582Ala (human) (UniProt P00747)
[11] = target: E. coli expressed recombinant human microplasmin Arg610Ala (human) (UniProt P00747)

IC50 (relative to the µPlm WT enzyme) (fold relative to WT) [1]: 1
IC50 (relative to the µPlm WT enzyme) (fold relative to WT) [2]: 1.2
IC50 (relative to the µPlm WT enzyme) (fold relative to WT) [3]: 1
IC50 (relative to the µPlm WT enzyme) (fold relative to WT) [4]: 1.6
IC50 (relative to the µPlm WT enzyme) (fold relative to WT) [5]: 3.9
activity remaining in the presence of α2-AP (% activity remaining) [5]: 50
IC50 (relative to the µPlm WT enzyme) (fold relative to WT) [6]: 1.2
α2-AP inhibition of µPlm activity [7]: > 400 nM
IC50 (relative to the µPlm WT enzyme) (fold relative to WT) [8]: 1
IC50 of α2-AP inhibition (fold of WT) (fold relative to WT) [9]: 2
IC50 (relative to the µPlm WT enzyme) (fold relative to WT) [10]: 1.6
IC50 (relative to the µPlm WT enzyme) (fold relative to WT) [11]: 1.7
B1: α2-antiplasmin (protein, UniProt P08697 40-491, looked up)
chain: NQEQVSPLTLLKLGNQEPGGQTALKSPPGVCSRDPTPEQTHRLARAMMAFTADLFSLVAQTSTCPNLILSPLSVALALSHLALGAQNHTLQRLQQVLHAGSGPCLPHLLSRLCQDLGPGAFRLAARMYLQKGFPIKEDFLEQSEQLFGAKPVSLTGKQEDDLANINQWVKEATEGKIQEFLSGLPEDTVLLLLNAIHFQGFWRNKFDPSLTQRDSFHLDEQFTVPVEMMQARTYPLRWFLLEQPEIQVAHFPFKNNMSFVVLVPTHFEWNVSQVLANLSWDTLHPPLVWERPTKVRLPKLYLKHQMDLVATLSQLGLQELFQAPDLRGISEQSLVVSGVQHQSTLELSEVGVEAAAATSIAMSRMSLSSFSVNRPFLFFIFEDTTGLPLFVGSVRNPNPSAPRELKEQQDSPGNKDFLQSLKGFPRGDKLFGPDLKLVPPMEEDYPQFGSPK
